Target: BTN2A2-His tag protein (without Fc tag) (human) (UniProt Q8WVV5)
Test: MST

Kd: 63.5 nM
Substance: recombinant CD45RO-Fc protein (from UniProt P08575-4 26-1145) (Fc fusion)

From publication PMC12873404
